Results published in patent US20050025768A1 (Biogen, published 2005).

Legend:
cynomolgus MCP-1 = biological target: T1, cynomolgus MCP-1 (cynomolgus, UniProt P61274 24-99); assay: ELISA, 1 ug/ml synthetic chemokine coated, mAb 10 ug/ml
T1 construct: also called primate MCP-1
Description: (§1) MaxiSorp 384 well plates were coated with 15-20 μl antigen in PBS. Recombinant purified human antigens included: MCP-1, MCP-2, MCP-3, MCP-4, IL-8, eotaxin, fractalkine, Gcp-2, DC-CK (Gcp-2 and DC-CK are also chemokines). Plates were incubated with antigen for 2 hours at 37° C. or overnight at 4° C. Non-specific sites were blocked with 80 μl/well of 1% BSA/PBS for 1 hour at room temperature. Plates were washed and 15 μl of hybridoma supernatant was added to each well and incubated for 1 hour at room temperature. Plates were washed and wells were incubated with 20 μl/well of a 1:25 000 dilution of goat anti-mouse IgG peroxidase conjugate (Jackson Catalog Number 515-036-003). Plates were incubated for 1 hour at room temperature, washed, and 20 μl/well of substrate (TMB, tetramethylbenzidine, Jackson, Catalog Number 515-036-062) was added. Reaction was allowed to proceed and stopped by addition of 20 μl/well of 2M H₂SO₄. Reactive clones were picked for further analysis. Isotyping of hybridoma supernatants was performed by antigen-dependent ELISA. Briefly, wells were coated with 50 μl of human MCP-1 (5 μg/ml) for 1 hour at 37° C. Wells were washed 4 times and blocked with PBS/1% BSA. Isotyping of hybridoma supernatants was then performed using a mouse immunoglobulin screening/isotyping kit (Zymed Laboratories, San Francisco, Calif.) as recommended by the manufacturer.
(§2) In addition, both 1A1 and 11K2 mAbs recognize primate MCP-1. Plates were coated with 1 μg/ml of chemically synthesized chemokines (corresponding to the cynomolgus and rhesus MCP-1 sequences) and probed with 10 μg/ml of monoclonal antibodies, including MOPC21, 1l K2, 3N10, 1A1, D9, and 1M11, as described above.

rhesus MCP-1 = biological target: T2, rhesus MCP-1 (rhesus, UniProt P61275 24-99); assay: as above
T2 construct: also called primate MCP-1
Description: as §1, §2

human IL-8 = biological target: T3, human IL-8 (human, UniProt P10145 28-99, limits assumed); assay: ELISA, purified mAb
T3 construct: also called hIL8
Description: (§3) ELISA specificity assays were performed using purified monoclonal antibodies to confirm the binding specificities of the supernatant MCP-specific monoclonal antibodies described above. Antibodies were purified by Protein A affinity column chromatography, according to standard methods known in the art.
(§4) ELISA was performed as previously described in Example 1. Briefly, MaxiSorp 384 well plates were coated with 15-20 μl antigen in PBS. Recombinant purified human antigens included: MCP-1, MCP-2, MCP-3, MCP-4, IL-8, eotaxin, murine MCP-1 (JE), murine MCP-3, murine MCP-5, and rat MCP-1. All antigens, including MCP-3, were immobilized. Plates were washed and purified monoclonal antibody (10 μg/ml) was added to each well and incubated for 1 hour at room temperature. Plates were washed and wells were incubated with 20 μl/well of a 1:25,000 dilution of goat anti-mouse IgG peroxidase conjugate (Jackson Catalog Number 515-036-003). Plates were incubated for 1 hour at room temperature, washed, and 20 μl/well of substrate (TMB, tetramethylbenzidine, Jackson, Catalog Number 515-036-062) was added. Reaction was allowed to proceed and stopped by addition of 20 μl/well of 2M H₂SO₄. Antibodies 1A1 bound specifically to hMCP-1, hMCP-2, hMCP-3, and mMCP-1. Antibodies 11K2, 4N4, 5A 13, 6D21, 6I5, and 7H1 bound specifically to hMCP-1, hMCP-2, hMCP-3, mMCP-1, mMCP-3, and mMCP-5.

human eotaxin = biological target: T4, human eotaxin (human, UniProt P51671 24-97); assay: ELISA, purified mAb
T4 construct: also called hEotaxin
Description: as §3, §4

human MCP-4 = biological target: T5, human MCP-4 (human, UniProt Q99616 24-98, limits assumed); assay: ELISA, purified mAb
T5 construct: also called hMCP-4
Description: as §3, §4

human Gcp-2 = human Gcp-2 (human, UniProt P80162 38-114, limits assumed); assay: ELISA, hybridoma supernatant
Description: as §1

human DC-CK = biological target: T6, human DC-CK (human, UniProt P55774 21-89, limits assumed); assay: ELISA, hybridoma supernatant
T6 construct: reading it as DC-CK1/CCL18 is mine
T6 sequence (looked up): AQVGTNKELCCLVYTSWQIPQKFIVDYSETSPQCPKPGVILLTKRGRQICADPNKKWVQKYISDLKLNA
Description: as §1

human fractalkine = biological target: T7, human fractalkine (human, UniProt P78423 25-100, limits assumed); assay: ELISA, hybridoma supernatant
T7 sequence (looked up): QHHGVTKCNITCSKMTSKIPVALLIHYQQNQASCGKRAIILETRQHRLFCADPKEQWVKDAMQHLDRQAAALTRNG
Description: as §1

human MCP-1 = biological target: T8, human MCP-1 (human, UniProt P13500 24-99); assay: KinExA kinetic exclusion assay, in solution
T8 construct: also called hMCP-1; huMCP-1
Description: (§5) Polymethylmethacrylate beads activated with NHS were coated with 10 μg recombinant human MCP-1 in 1 ml buffer. The beads were packed into a column in the KinExA instrument for each sample. This packed bead column is able to capture free MCP mAb or Fab flowed through the column. The amount of free mAb or Fab in solution was determined using a secondary goat anti-mouse heavy and light chain IgG-Cy5 conjugate.
(§6) A fixed amount of 11K2 mAb, 1A1 mAb, 11K2 Fab, or 1A1 Fab was incubated with various amounts of human MCP-1, MCP-2 or MCP-3 for three hours. The amount of uncomplexed free antibody remaining in solution was determined by flowing these mixtures over the MCP-1-loaded bead column and labeling with the Cy5 secondary antibody. The fluorescent signal was plotted against the MCP concentration and the affinity was determined using a quadratic curve fit

human MCP-2 [1] = biological target: T9, human MCP-2 (human, UniProt P80075 24-99); assay: KinExA kinetic exclusion assay, in solution
T9 construct: also called hMCP-2; huMCP-2
T9 sequence (looked up): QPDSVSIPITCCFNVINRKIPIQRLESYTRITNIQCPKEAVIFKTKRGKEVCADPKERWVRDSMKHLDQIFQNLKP
Description: as §5, §6

human MCP-2 [2] = biological target: T9, human MCP-2; assay: KinExA kinetic exclusion assay, in solution; whole mAb (bivalent IgG1), not Fab
Description: as §5, §6

human MCP-2 [3] = biological target: T9, human MCP-2; assay: KinExA kinetic exclusion assay, in solution; Fab (monovalent), not whole mAb
Description: as §5, §6

B1: 11K2 (antibody, IgG1, V domains shown)
VH: EVQLQQSGAELVKAGASVKLSCPASGLNIKDTYMHWVKQRPEQGLEWIGRIDPANGNTKFDPKFQGKATITADTSSNTAYLQLSSLTSEDTAVYYCARGVFGFFDYWGQGTTLTVSS
VL: DIQMTQSSSSFSVSLGDRVTITCKATEDIYNRLAWYQQKPGSAPRLLISGATSLETGVPSRFSGSGSGKDYTLSITSLQTEDVATYYCQQFWSAPYTFGGGTKLEIK
notes: ATCC PTA-3987; also called 11K2.1; 11K2 mAb
B1: binds (cynomolgus MCP-1); binds (rhesus MCP-1); no binding (tested: 10 ug/ml) (human IL-8). B1: no binding (tested: 10 ug/ml) (human eotaxin); no binding (tested: 10 ug/ml) (human MCP-4); no binding (human Gcp-2). For the same binder, the binding result (human DC-CK) was “no binding”, the binding result (human fractalkine) was “no binding” and the Kd (human MCP-1) was less than 0.4 pM. It also gave a Kd (human MCP-2 [1]) of 18 pM.

B2: 5A13 (antibody, IgG1, V domains shown)
VH: EVQLQQSGAELVKAGASVKLSCPASGLNIKDTYMHWVKQRPEQGLEWIGRIDPANGNTKFDPKFQGKATITADTSSNTAYLQLSSLTSEDTAVYYCARGVFGFFDYWGQGTTLTVSS
VL: DIQMTQSSSSFSVSLGDRVTITCKATEDIYNRLAWYQQKPGSAPRLLISGATSLETGVPSRFSGSGSGKDYTLSITSLQTEDVATYYCQQFWSAPYTFGGGTKLEIK
notes: IgG1; ATCC PTA-3995; also called 5A13.1
B2: no binding (tested: 10 ug/ml) (human IL-8); no binding (tested: 10 ug/ml) (human eotaxin); no binding (tested: 10 ug/ml) (human MCP-4). B2: no binding (human Gcp-2); no binding (human DC-CK); no binding (human fractalkine).

B3: 4N4 (antibody, IgG1, V domains shown)
VH: EVQLQQSGAELVKAGASVKLSCPASGLNIKDTYMHWVKQRPEQGLEWIGRIDPANGNTKFDPKFQGKATITADTSSNTAYLQLSSLTSEDTAVYYCARGVFGFFDYWGQGTTLTVSS
VL: DIQMTQSSSSFSVSLGDRVTITCKATEDIYNRLAWYQQKPGSAPRLLISGATSLETGVPSRFSGSGSGKDYTLSITSLQTEDVATYYCQQFWSAPYTFGGGTKLEIK
notes: IgG1; ATCC PTA-3994; also called 4N4.1
B3: no binding (tested: 10 ug/ml) (human IL-8); no binding (tested: 10 ug/ml) (human eotaxin); no binding (tested: 10 ug/ml) (human MCP-4). B3: no binding (human Gcp-2); no binding (human DC-CK); no binding (human fractalkine).

B4: 6I5 (antibody, IgG1, V domains shown)
VH: EVQLQQSGAELVKAGASVKLSCPASGLNIKDTYMHWVKQRPEQGLEWIGRIDPANGNTKFDPKFQGKATITADTSSNTAYLQLSSLTSEDTAVYYCARGVFGFFDYWGQGTTLTVSS
VL: DIQMTQSSSSFSVSLGDRVTITCKATEDIYNRLAWYQQKPGSAPRLLISGATSLETGVPSRFSGSGSGKDYTLSITSLQTEDVATYYCQQFWSAPYTFGGGTKLEIK
notes: IgG1; ATCC PTA-3986; also called 615; 6I5.1
B4: no binding (tested: 10 ug/ml) (human IL-8); no binding (tested: 10 ug/ml) (human eotaxin); no binding (tested: 10 ug/ml) (human MCP-4). B4: no binding (human Gcp-2); no binding (human DC-CK); no binding (human fractalkine).

B5: 11K2 Fab (Fab, V domains shown)
VH: EVQLQQSGAELVKAGASVKLSCPASGLNIKDTYMHWVKQRPEQGLEWIGRIDPANGNTKFDPKFQGKATITADTSSNTAYLQLSSLTSEDTAVYYCARGVFGFFDYWGQGTTLTVSS
VL: DIQMTQSSSSFSVSLGDRVTITCKATEDIYNRLAWYQQKPGSAPRLLISGATSLETGVPSRFSGSGSGKDYTLSITSLQTEDVATYYCQQFWSAPYTFGGGTKLEIK
notes: Fab of the murine IgG1 mAb; also called Fab fragment of 11K2
B5 showed a Kd (human MCP-1) of 11 pM and a Kd (human MCP-2 [1]) of 430 pM.

B6: 6D21 (antibody, IgG1, V domains shown)
VH: EVQLQQSGAELVKAGASVKLSCPASGLNIKDTYMHWVKQRPEQGLEWIGRIDPANGNTKFDPKFQGKATITADTSSNTAYLQLSSLTSEDTAVYYCARGVFGFFDYWGQGTTLTVSS
VL: DIQMTQSSSSFSVSLGDRVTITCKATEDIYNRLAWYQQKPGSAPRLLISGATSLETGVPSRFSGSGSGKDYTLSITSLQTEDVATYYCQQFWSAPYTFGGGTKLEIK
notes: IgG1; ATCC PTA-3989; also called 6D21.1
B6: no binding (tested: 10 ug/ml) (human IL-8); no binding (tested: 10 ug/ml) (human eotaxin); no binding (tested: 10 ug/ml) (human MCP-4). B6: no binding (human Gcp-2); no binding (human DC-CK); no binding (human fractalkine).

B7: 7H1 (antibody, IgG1, V domains shown)
VH: EVQLQQSGAELVKAGASVKLSCPASGLNIKDTYMHWVKQRPEQGLEWIGRIDPANGNTKFDPKFQGKATITADTSSNTAYLQLSSLTSEDTAVYYCARGVFGFFDYWGQGTTLTVSS
VL: DIQMTQSSSSFSVSLGDRVTITCKATEDIYNRLAWYQQKPGSAPRLLISGATSLETGVPSRFSGSGSGKDYTLSITSLQTEDVATYYCQQFWSAPYTFGGGTKLEIK
notes: IgG1; ATCC PTA-3985; also called 7H1.1
B7: no binding (tested: 10 ug/ml) (human IL-8); no binding (tested: 10 ug/ml) (human eotaxin); no binding (tested: 10 ug/ml) (human MCP-4). B7: no binding (human Gcp-2); no binding (human DC-CK); no binding (human fractalkine).

B8: 1A1 (antibody, IgG1, V domains shown)
VH: EVQLQQSGAELVRSGASVKLSCTASGFNIKDNYMHWVKQRPEQGLEWIGWIDPENGDTEYAPKFQGKATMTADTSSNTAYLQLSSLTSEDTAVYYCNTWAYYGTSYGGFAYWGQGTTVTVSS
VL: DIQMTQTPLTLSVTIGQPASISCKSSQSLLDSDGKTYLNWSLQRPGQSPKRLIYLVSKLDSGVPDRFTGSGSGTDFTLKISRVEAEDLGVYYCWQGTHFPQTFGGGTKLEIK
notes: ATCC PTA-3990; also called 1A1.1; 1A1 mAb
B8: binds (cynomolgus MCP-1); binds (rhesus MCP-1); no binding (tested: 10 ug/ml) (human IL-8). B8: no binding (tested: 10 ug/ml) (human eotaxin); no binding (tested: 10 ug/ml) (human MCP-4); no binding (human Gcp-2). The binding result (human DC-CK) was “no binding”, the binding result (human fractalkine) was “no binding” and the Kd (human MCP-2 [2]) was 1.2 pM. The Kd (human MCP-1) was less than 0.7 pM.

B9: 1A1 Fab (Fab, V domains shown)
VH: EVQLQQSGAELVRSGASVKLSCTASGFNIKDNYMHWVKQRPEQGLEWIGWIDPENGDTEYAPKFQGKATMTADTSSNTAYLQLSSLTSEDTAVYYCNTWAYYGTSYGGFAYWGQGTTVTVSS
VL: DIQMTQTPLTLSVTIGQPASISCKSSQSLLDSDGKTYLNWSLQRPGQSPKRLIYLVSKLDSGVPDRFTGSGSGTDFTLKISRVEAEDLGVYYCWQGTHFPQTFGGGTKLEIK
notes: Fab of the murine IgG1 mAb; also called Fab fragment of 1A1
Binder B9 has a Kd (human MCP-2 [3]) of 320 pM and a Kd (human MCP-1) of 13 pM.
